# Measured values: patent publication US20260234241A1 (SHANGHAI QILU PHARMACEUTICAL RESEARCH AND DEVELOPMENT CENTRE, published 2026)
# Changes are numbered by the printed parent chain. Read-outs that look alike come from different tables or passages of the source.
# T1: human BCMA (on cells) (human, UniProt Q02223 1-184)
# T1 construct: Full length, on transfected CHOK1 cells; also used as the target of the BCMA/CD3 bispecific Teclistamab on NCI-H929 and RPMI8226 cells; also called Human BCMA CHOK1
# T1 sequence: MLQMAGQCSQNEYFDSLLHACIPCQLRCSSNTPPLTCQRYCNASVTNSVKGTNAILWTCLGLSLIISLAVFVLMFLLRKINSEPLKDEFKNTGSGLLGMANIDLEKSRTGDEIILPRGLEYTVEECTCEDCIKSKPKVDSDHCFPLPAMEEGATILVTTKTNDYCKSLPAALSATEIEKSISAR
# B1: 19CH-16 (antibody, IgG1, V domains shown)
# VH: QGQMQQSGAELVKPGTSVKLSCKTSGFTFRSSYISWLQQKPGQSLEWIAWIYAGSGNTDYNQKFTGKAQLTVDTSSSTAYMQFSSLTTEDSAIYYCARHYDPPHYFDYWGQGTTLTVSS
# VL: QIVLTQSPAIMSASPGEKVTMTCSASSGVSHMHWYQQKSGTSPKRWIYDTSKLTSGVPTRFSGTGSGTSYSLSISSMEAEDAATYYCQQWSRNPWTFGGGTKLEIK
# notes: also called anti-BCMA chimeric antibody (19CH-16) derived from mouse hybridoma
# B2: 19CH-16H2L2 (antibody, IgG1, V domains shown)
# VH: QVQLVQSGAEVKKPGASVKVSCKASGFTFRSSYISWVRQAPGQGLEWIAWIYAGSGNTDYNQKFTGRVTMTVDTSTSTVYMELSSLRSEDTAVYYCARHYDPPHYFDYWGQGTLVTVSS
# VL: DIQLTQSPSSLSASVGDRVTITCSASSGVSHMHWYQQKPGKAPKRWIYDTSKLTSGVPSRFSGSGSGTDFTLTISSLQPEDFATYYCQQWSRNPWTFGQGTKVEIK
# notes: also called humanized anti-BCMA antibody (19CH-16H2L2)
# B3: 19CH-16H2L2-QT (antibody, V domains shown)
# VH: B2 VH with N57Q
# VL: B2 VL
# Assays:
# human BCMA (on cells) [1] = molecular target: T1, human BCMA (on cells); assay: FACS, human BCMA-CHOK1 cells, anti-human IgG Fc PE secondary, MFI
# human BCMA (on cells) [2] = molecular target: T1, human BCMA (on cells); assay: as above; remark: listed apart in the source
# [3] = molecular target: T2, cynomolgus monkey BCMA (on cells) (cynomolgus monkey, UniProt Q02223 1-184 (human entry)); assay: FACS, cynomolgus monkey BCMA-CHOK1 cells, anti-human IgG Fc PE secondary, MFI
# T2 construct: also called cyno-BCMA; cyno BCMA CHOK1
# human BCMA (on cells) [4] = molecular target: T1, human BCMA (on cells); assay: FACS on human BCMA-CHOK1 cells
# [5] = molecular target: T2, cynomolgus monkey BCMA (on cells); assay: FACS on cynomolgus BCMA-CHOK1 cells
# T2 sequence (Q02223 other isoform, or with tags, fused parts or gaps): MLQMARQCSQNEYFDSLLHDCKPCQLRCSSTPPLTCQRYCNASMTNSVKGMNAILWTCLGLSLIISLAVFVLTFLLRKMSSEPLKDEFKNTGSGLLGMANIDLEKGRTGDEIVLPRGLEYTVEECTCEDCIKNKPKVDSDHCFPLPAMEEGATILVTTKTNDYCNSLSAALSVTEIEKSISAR
binder,measurement,setting,value
B1,EC50 (read off the curve),human BCMA (on cells) [1],~2 nM
B2,EC50 (read off the curve),human BCMA (on cells) [2],~1 nM
same,EC50 (read off the curve),[3],~3 nM
B3,EC50,human BCMA (on cells) [4],7.76 nM
same,EC50,[5],9.05 nM
